System: Escherichia coli TOP10
Assay: shrunken log2 fold change of peptide-encoding DNA abundance (4.5 h post-induction vs induction); higher = less antimicrobial activity (less host growth inhibition)
Settings: time post-induction: 4.5 h; library: site-saturation at positions 5, 18, 19, 20
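Also: peptides expressed intracellularly from a pBAD plasmid library in pooled LB shake-flask culture, induced with 0.3% L-arabinose, DNA abundance read by NGS, three biological replicates, DESeq2 with apeglm shrinkage.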

RRIRYRPPRLPRPRPRPQCVPRP
shrunken log2 fold change: -0.127

RRIRYRPPRLPRPRPRPQDVPRP
shrunken log2 fold change: -0.103

RRIRYRPPRLPRPRPRPQDWPRP
shrunken log2 fold change: -0.258

RRIRYRPPRLPRPRPRPQEAPRP
shrunken log2 fold change: -0.029

RRIRYRPPRLPRPRPRPQEEPRP
shrunken log2 fold change: -0.0969

RRIRYRPPRLPRPRPRPQEFPRP
shrunken log2 fold change: -0.00973

RRIRYRPPRLPRPRPRPQEVPRP
shrunken log2 fold change: 0.013

RRIRYRPPRLPRPRPRPQGVPRP
shrunken log2 fold change: -0.464

RRIRYRPPRLPRPRPRPQHAPRP
shrunken log2 fold change: -0.313

RRIRYRPPRLPRPRPRPQHTPRP
shrunken log2 fold change: -0.671

RRIRYRPPRLPRPRPRPQKRPRP
shrunken log2 fold change: -0.0426

RRIRYRPPRLPRPRPRPQMWPRP
shrunken log2 fold change: -0.213

RRIRYRPPRLPRPRPRPQPRPRP
shrunken log2 fold change: 0.463

RRIRYRPPRLPRPRPRPQQFPRP
shrunken log2 fold change: -0.397

RRIRYRPPRLPRPRPRPQSQPRP
shrunken log2 fold change: -0.133

RRIRYRPPRLPRPRPRPQTFPRP
shrunken log2 fold change: -0.459

RRIRYRPPRLPRPRPRPQVCPRP
shrunken log2 fold change: -0.00133

RRIRYRPPRLPRPRPRPQVWPRP
shrunken log2 fold change: -0.0375

RRIRYRPPRLPRPRPRPRADPRP
shrunken log2 fold change: 0.0349

RRIRYRPPRLPRPRPRPRAKPRP
shrunken log2 fold change: 0.404

RRIRYRPPRLPRPRPRPRALPRP
shrunken log2 fold change: 0.0114

RRIRYRPPRLPRPRPRPRARPRP
shrunken log2 fold change: 2.17

RRIRYRPPRLPRPRPRPRATPRP
shrunken log2 fold change: -0.0516

RRIRYRPPRLPRPRPRPRCNPRP
shrunken log2 fold change: -0.552

RRIRYRPPRLPRPRPRPRECPRP
shrunken log2 fold change: -0.154

RRIRYRPPRLPRPRPRPRESPRP
shrunken log2 fold change: 0.0662

RRIRYRPPRLPRPRPRPRFQPRP
shrunken log2 fold change: -0.201

RRIRYRPPRLPRPRPRPRGNPRP
shrunken log2 fold change: -0.0138

RRIRYRPPRLPRPRPRPRHCPRP
shrunken log2 fold change: -0.251

RRIRYRPPRLPRPRPRPRHVPRP
shrunken log2 fold change: -0.0478

RRIRYRPPRLPRPRPRPRIAPRP
shrunken log2 fold change: 0.00898

RRIRYRPPRLPRPRPRPRIGPRP
shrunken log2 fold change: -0.471

RRIRYRPPRLPRPRPRPRIWPRP
shrunken log2 fold change: -0.0174

RRIRYRPPRLPRPRPRPRLNPRP
shrunken log2 fold change: -0.313

RRIRYRPPRLPRPRPRPRLPPRP
shrunken log2 fold change: -0.0393

RRIRYRPPRLPRPRPRPRQFPRP
shrunken log2 fold change: -0.379

RRIRYRPPRLPRPRPRPRSGPRP
shrunken log2 fold change: -0.0667

RRIRYRPPRLPRPRPRPRVDPRP
shrunken log2 fold change: -0.531

RRIRYRPPRLPRPRPRPRVTPRP
shrunken log2 fold change: -0.286

RRIRYRPPRLPRPRPRPSCMPRP
shrunken log2 fold change: -0.947

RRIRYRPPRLPRPRPRPSEDPRP
shrunken log2 fold change: -0.123

RRIRYRPPRLPRPRPRPSEGPRP
shrunken log2 fold change: 0.0169

RRIRYRPPRLPRPRPRPSELPRP
shrunken log2 fold change: -0.0343

RRIRYRPPRLPRPRPRPSFFPRP
shrunken log2 fold change: -0.665

RRIRYRPPRLPRPRPRPSFLPRP
shrunken log2 fold change: -0.994

RRIRYRPPRLPRPRPRPSFNPRP
shrunken log2 fold change: -0.756

RRIRYRPPRLPRPRPRPSFSPRP
shrunken log2 fold change: -0.626

RRIRYRPPRLPRPRPRPSGTPRP
shrunken log2 fold change: -0.175

RRIRYRPPRLPRPRPRPSHDPRP
shrunken log2 fold change: -0.916

RRIRYRPPRLPRPRPRPSIWPRP
shrunken log2 fold change: -1.31

RRIRYRPPRLPRPRPRPSMIPRP
shrunken log2 fold change: -0.77

RRIRYRPPRLPRPRPRPSNTPRP
shrunken log2 fold change: -1.06

RRIRYRPPRLPRPRPRPSPRPRP
shrunken log2 fold change: 0.062

RRIRYRPPRLPRPRPRPSQIPRP
shrunken log2 fold change: -0.766

RRIRYRPPRLPRPRPRPSRVPRP
shrunken log2 fold change: -0.115

RRIRYRPPRLPRPRPRPSWAPRP
shrunken log2 fold change: -0.21

RRIRYRPPRLPRPRPRPSWEPRP
shrunken log2 fold change: -0.153

RRIRYRPPRLPRPRPRPSWLPRP
shrunken log2 fold change: -0.78

RRIRYRPPRLPRPRPRPSWTPRP
shrunken log2 fold change: -1.11

RRIRYRPPRLPRPRPRPSYWPRP
shrunken log2 fold change: -0.716

RRIRYRPPRLPRPRPRPTACPRP
shrunken log2 fold change: -0.13

RRIRYRPPRLPRPRPRPTEKPRP
shrunken log2 fold change: -0.0336

RRIRYRPPRLPRPRPRPTHSPRP
shrunken log2 fold change: -0.698

RRIRYRPPRLPRPRPRPTHTPRP
shrunken log2 fold change: 0.049

RRIRYRPPRLPRPRPRPTHVPRP
shrunken log2 fold change: -0.27

RRIRYRPPRLPRPRPRPTILPRP
shrunken log2 fold change: -0.521

RRIRYRPPRLPRPRPRPTKDPRP
shrunken log2 fold change: -1.04

RRIRYRPPRLPRPRPRPTKNPRP
shrunken log2 fold change: -0.495

RRIRYRPPRLPRPRPRPTLKPRP
shrunken log2 fold change: -0.283

RRIRYRPPRLPRPRPRPTMPPRP
shrunken log2 fold change: -0.725

RRIRYRPPRLPRPRPRPTMYPRP
shrunken log2 fold change: -0.33

RRIRYRPPRLPRPRPRPTNKPRP
shrunken log2 fold change: -0.699

RRIRYRPPRLPRPRPRPTNPPRP
shrunken log2 fold change: -0.165

RRIRYRPPRLPRPRPRPTPAPRP
shrunken log2 fold change: 0.238

RRIRYRPPRLPRPRPRPTPGPRP
shrunken log2 fold change: -0.0705

RRIRYRPPRLPRPRPRPTPLPRP
shrunken log2 fold change: 0.0136

RRIRYRPPRLPRPRPRPTPRPRP
shrunken log2 fold change: 0.886

RRIRYRPPRLPRPRPRPTPVPRP
shrunken log2 fold change: -0.0457

RRIRYRPPRLPRPRPRPTRFPRP
shrunken log2 fold change: 0.0879

RRIRYRPPRLPRPRPRPTRQPRP
shrunken log2 fold change: -0.00287

RRIRYRPPRLPRPRPRPTVKPRP
shrunken log2 fold change: -0.428

RRIRYRPPRLPRPRPRPTWPPRP
shrunken log2 fold change: 0.183

RRIRYRPPRLPRPRPRPTWSPRP
shrunken log2 fold change: -0.58

RRIRYRPPRLPRPRPRPTYIPRP
shrunken log2 fold change: -0.58

RRIRYRPPRLPRPRPRPTYMPRP
shrunken log2 fold change: -1

RRIRYRPPRLPRPRPRPVCEPRP
shrunken log2 fold change: 0.0427

RRIRYRPPRLPRPRPRPVCFPRP
shrunken log2 fold change: -0.674

RRIRYRPPRLPRPRPRPVCGPRP
shrunken log2 fold change: -0.463

RRIRYRPPRLPRPRPRPVFKPRP
shrunken log2 fold change: -0.238

RRIRYRPPRLPRPRPRPVFWPRP
shrunken log2 fold change: 0.11

RRIRYRPPRLPRPRPRPVHNPRP
shrunken log2 fold change: -0.353

RRIRYRPPRLPRPRPRPVKDPRP
shrunken log2 fold change: -0.0122

RRIRYRPPRLPRPRPRPVLFPRP
shrunken log2 fold change: -0.598

RRIRYRPPRLPRPRPRPVLHPRP
shrunken log2 fold change: -0.5

RRIRYRPPRLPRPRPRPVNSPRP
shrunken log2 fold change: -0.0185

RRIRYRPPRLPRPRPRPVPPPRP
shrunken log2 fold change: 0.208

RRIRYRPPRLPRPRPRPVQRPRP
shrunken log2 fold change: -0.0294

RRIRYRPPRLPRPRPRPVQWPRP
shrunken log2 fold change: -0.126

RRIRYRPPRLPRPRPRPVRHPRP
shrunken log2 fold change: -0.245

RRIRYRPPRLPRPRPRPVRMPRP
shrunken log2 fold change: -0.246

RRIRYRPPRLPRPRPRPVRWPRP
shrunken log2 fold change: 0.164

RRIRYRPPRLPRPRPRPVSEPRP
shrunken log2 fold change: -0.00125

RRIRYRPPRLPRPRPRPVTNPRP
shrunken log2 fold change: -0.015

RRIRYRPPRLPRPRPRPVVAPRP
shrunken log2 fold change: -0.32

RRIRYRPPRLPRPRPRPVVTPRP
shrunken log2 fold change: -0.351

RRIRYRPPRLPRPRPRPVWNPRP
shrunken log2 fold change: -0.136

RRIRYRPPRLPRPRPRPWAIPRP
shrunken log2 fold change: 0.0155

RRIRYRPPRLPRPRPRPWCWPRP
shrunken log2 fold change: -0.153

RRIRYRPPRLPRPRPRPWEAPRP
shrunken log2 fold change: -0.271

RRIRYRPPRLPRPRPRPWGVPRP
shrunken log2 fold change: -0.242

RRIRYRPPRLPRPRPRPWHEPRP
shrunken log2 fold change: -0.01

RRIRYRPPRLPRPRPRPWIAPRP
shrunken log2 fold change: -0.791

RRIRYRPPRLPRPRPRPWIGPRP
shrunken log2 fold change: -0.314

RRIRYRPPRLPRPRPRPWKYPRP
shrunken log2 fold change: -0.0732

RRIRYRPPRLPRPRPRPWNPPRP
shrunken log2 fold change: -0.00498

RRIRYRPPRLPRPRPRPWPGPRP
shrunken log2 fold change: -0.15

RRIRYRPPRLPRPRPRPWPMPRP
shrunken log2 fold change: -0.0578

RRIRYRPPRLPRPRPRPWPSPRP
shrunken log2 fold change: -0.00149

RRIRYRPPRLPRPRPRPWQPPRP
shrunken log2 fold change: -0.274

RRIRYRPPRLPRPRPRPWRDPRP
shrunken log2 fold change: -0.0075

RRIRYRPPRLPRPRPRPWSYPRP
shrunken log2 fold change: -0.23

RRIRYRPPRLPRPRPRPWVEPRP
shrunken log2 fold change: 0.0344

RRIRYRPPRLPRPRPRPWVTPRP
shrunken log2 fold change: -0.477

RRIRYRPPRLPRPRPRPWYIPRP
shrunken log2 fold change: -0.00804

RRIRYRPPRLPRPRPRPYALPRP
shrunken log2 fold change: -0.172

RRIRYRPPRLPRPRPRPYAWPRP
shrunken log2 fold change: -0.14

RRIRYRPPRLPRPRPRPYCKPRP
shrunken log2 fold change: -1.32

RRIRYRPPRLPRPRPRPYCMPRP
shrunken log2 fold change: -0.918

RRIRYRPPRLPRPRPRPYDDPRP
shrunken log2 fold change: -0.129

RRIRYRPPRLPRPRPRPYDQPRP
shrunken log2 fold change: -0.124

RRIRYRPPRLPRPRPRPYIRPRP
shrunken log2 fold change: -1.92e-05

RRIRYRPPRLPRPRPRPYIVPRP
shrunken log2 fold change: -0.496

RRIRYRPPRLPRPRPRPYIYPRP
shrunken log2 fold change: -2.06

RRIRYRPPRLPRPRPRPYLIPRP
shrunken log2 fold change: -0.554

RRIRYRPPRLPRPRPRPYMDPRP
shrunken log2 fold change: -0.14

RRIRYRPPRLPRPRPRPYNEPRP
shrunken log2 fold change: -1.3

RRIRYRPPRLPRPRPRPYNIPRP
shrunken log2 fold change: -0.426

RRIRYRPPRLPRPRPRPYQFPRP
shrunken log2 fold change: -0.183

RRIRYRPPRLPRPRPRPYQMPRP
shrunken log2 fold change: -0.344

RRIRYRPPRLPRPRPRPYSAPRP
shrunken log2 fold change: -1.51

RRIRYRPPRLPRPRPRPYTDPRP
shrunken log2 fold change: -0.396

RRIRYRPPRLPRPRPRPYTRPRP
shrunken log2 fold change: -1.51

RRIRYRPPRLPRPRPRPYYNPRP
shrunken log2 fold change: -0.231

Source: the supplement of paper PMC9112550, “Optimization of the antimicrobial peptide Bac7 by deep mutational scanning” (BMC Biology, 2022)
